# Patent publication US8765433B2, “Alcohol dehydrogenases (ADH) useful for fermentive production of lower alkyl alcohols” (Butamax Advanced Biofuels LLC, priority 2009, dated 2014)
# B1: ScADH6: Saccharomyces cerevisiae ADH6 alcohol dehydrogenase, SEQ ID NO: 22 (protein, listed as Saccharomyces cerevisiae)
# chain: MSYPEKFEGIAIQSHEDWKNPKKTKYDPKPFYDHDIDIKIEACGVCGSDIHCAAGHWGNMKMPLVVGHEIVGKVVKLGPKSNSGLKVGQRVGVGAQVFSCLECDRCKNDNEPYCTKFVTTYSQPYEDGYVSQGGYANYVRVHEHFVVPIPENIPSHLAAPLLCGGLTVYSPLVRNGCGPGKKVGIVGLGGIGSMGTLISKAMGAETYVISRSSRKREDAMKMGADHYIATLEEGDWGEKYFDTFDLIVVCASSLTDIDFNIMPKAMKVGGRIVSISIPEQHEMLSLKPYGLKAVSISYSALGSIKELNQLLKLVSEKDIKIWVETLPVGEAGVHEAFERMEKGDVRYRFTLVGYDKEFSD
# B2: BiADH: ADH of Beijerinckia indica subsp. Indica ATCC 9039, SEQ ID NO: 31 (protein, listed as Beijerickia indica)
# chain: MKALVYRGPGQKLVEERQKPELKEPGDAIVKVTKTTICGTDLHILKGDVATCKPGRVLGHEGVGVIESVGSGVTAFQPGDRVLISCISSCGKCSFCRRGMFSHCTTGGWILGNEIDGTQAEYVRVPHADTSLYRIPAGADEEALVMLSDILPTGFECGVLNGKVAPGSSVAIVGAGPVGLAALLTAQFYSPAEIIMIDLDDNRLGLAKQFGATRTVNSTGGNAAAEVKALTEGLGVDTAIEAVGIPATFELCQNIVAPGGTIANVGVHGSKVDLHLESLWSHNVTITTRLVDTATTPMLLKTVQSHKLDPSRLITHRFSLDQILDAYETFGQAASTQALKVIISMEA
# How the values were obtained:
# [1] = Cofactor specificity in isobutyraldehyde reduction reactions; format: biochemical; settings: for COFACTOR PREFERENCE: isobutyraldehyde reduction, NADH or NADPH as cofactor
# Procedure: As a routine practice, the crude extracts and purified proteins were assayed for butanol oxidation activity, in order to ensure that the recombinant proteins were active throughout the purification process. […] Alcohol oxidation activities were carried out in 50 mM sodium phosphate buffer at pH 8.8 and aldehyde reduction reactions were assayed in 190 mM potassium phosphate buffer at pH 7.0. Depending on the nature of reaction being carried out, the enzyme and cofactor stocks were diluted in the reaction buffers at the respective pHs. Either buffer or cell extract prepared from the proprietary E. coli strain (with no ADH plasmid) was used as the negative control for assays with purified protein and cell-free extracts, respectively.
# In initial experiments, there were insufficient levels of protein expression with EhADH1 and RpADH8. […] It is believed that one of skill in the art could further optimize expression and assay conditions for these candidates. Sufficient amounts of active protein could be purified with all other enzymes for which data are presented. […]
# [2] = Semi-physiological time-course assay with and without 321 mM isobutanol; format: biochemical
# Source text: The ideal way to characterize and compare various ADH candidates would be to calculate and compare the full set of kinetic constants, i.e., kcat values for aldehyde reduction and alcohol oxidation, KM values for isobutyraldehyde, isobutanol, NAD(P) and NAD(P)H, and KI values for isobutyraldehyde and isobutanol. A detailed characterization for numerous candidates would require considerable expenditure of time, effort and money. Thus, a qualitative assay was developed to allow for quick and efficient comparison of several candidates. A semi-physiological assay was designed to compare the performance of various enzymes. The assays entail the initiation of all reactions with a constant amount of each enzyme. […] Each reaction's time course was followed for 10 min by measuring the decrease in absorbance at 340 nm, as the reaction proceeds towards equilibrium. An enzyme with a high kcat, would drive the reaction towards equilibrium faster than an enzyme with a lower kcat. A parallel assay was also carried out under identical conditions, but with the inclusion of 321 mM isobutanol (24 g/L) in the reaction. An enzyme that is relatively uninhibited by this concentration of isobutanol would have a time course that closely mimics the time course in the absence of isobutanol.
Molecule,Other enzymatic properties and cofactor preference ([1]; Table 7),COFACTOR PREFERENCE [1],"inhibition by isobutanol (inferred from time courses, FIG. 1) ([2]; 321 mM isobutanol (24 g/L))","kcat for the isobutyraldehyde reduction reaction (inferred from time courses, FIG. 1) ([2]; 1 ug enzyme, 1 mM isobutyraldehyde, 200 μM NADH, 10 min)"
B1,NADPH specific,NADPH,likely to be the least inhibited,
B2,,NADH,,likely to have the highest kcat
